{
  "source": "paper PMC10381965",
  "binders": {"B1": {"name": "C0N3 153 bp (chimeric CEN3/W601) (dsDNA)", "DNA 1": "ATAAGTCACATGGTGCCGAGGCCGCTCAATTGGTCGTAGACAGCTCTAGCACCGCTTAAACGCACGTACGCGCTGTCCCCCGCGTTTTAATATTAGTGTATTTGATTTCCGAAAGTTAAAAAAGAAATAGTAAGAAATATATATTTCATTGAA", "DNA 2": "TTCAATGAAATATATATTTCTTACTATTTCTTTTTTAACTTTCGGAAATCAAATACACTAATATTAAAACGCGGGGGACAGCGCGTACGTGCGTTTAAGCGGTGCTAGAGCTGTCTACGACCAATTGAGCGGCCTCGGCACCATGTGACTTAT"}},
  "target": "CBF1;CCAN (CENP-LN, CENP-OPQU+, CENP-HIK-TW, CENP-C) (Saccharomyces cerevisiae;Saccharomyces …, UniProt P17106;P38907;P38265;Q06675;Q02732;P53298;P38313;Q12493;Q06162;Q12262;Q12748;P47 …, |)",
  "experiment": "cryo-EM structure (3.4 Å); free C0N3 DNA without octamer; topological entrapment, 25 bp contacted; Binding buffer for IK assembly not given in the material; proteins purified in 20 mM Hepes pH 8.0, 300 mM NaCl, 0.5 mM TCEP",
  "data": [
    {"binder": "B1", "values": [
      {"measurement": "binding result", "result": "binds"}
    ]}
  ]
}
